Ends that are not written are not given here.
T1: PACAP38 peptide fragment 11-27 (human)
T1 construct: also called peptide No. 8
T1 peptide: SRYRKQMAVKKYLAAVL

T2: PACAP38 peptide fragment 4-27 (human)
T2 construct: also called peptide No. 9
T2 peptide: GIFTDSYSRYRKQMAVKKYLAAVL

T3: PACAP38 peptide fragment 14-38 (human, not fully specified)
T3 construct: also called peptide No. 7
T3 peptide: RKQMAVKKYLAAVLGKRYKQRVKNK

T4: PACAP38 peptide fragment 6-35 (human)
T4 construct: also called peptide No. 4
T4 peptide: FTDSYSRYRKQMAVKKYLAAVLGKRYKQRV

T5: human PACAP27 (human, not fully specified)
T5 peptide: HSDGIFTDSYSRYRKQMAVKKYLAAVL

T6: 30-37
T6 construct: also called PACAP38 peptide fragment 30-37; peptide No. 19
T6 peptide: RYKQRVKN

T7: PACAP38 peptide fragment 34-38 (human, ends and bridges not checked)
T7 construct: also called peptide No. 17; RVKNK
T7 peptide: RVKNK

T8: PACAP38 peptide fragment 27-38 (human, ends and bridges not checked)
T8 construct: also called peptide No. 6
T8 peptide: LGKRYKQRVKNK

T9: PACAP38 peptide fragment 26-33 (human)
T9 construct: also called peptide No. 2
T9 peptide: VLGKRYKQ

T10: amino terminal PACAP38 peptide (amino acids 1-13) (human)
T10 construct: also called N-terminal Peptide; N-terminal PACAP peptide
T10 peptide: HSDGIFTDSYSRY

T11: 31-38 (ends and bridges not checked)
T11 construct: also called PACAP38 peptide fragment 31-38; peptide No. 5
T11 peptide: YKQRVKNK

T12: full-length human PACAP38 (human, not fully specified)
T12 peptide: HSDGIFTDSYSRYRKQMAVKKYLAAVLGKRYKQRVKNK


What was measured:
[1] = biological target: T1, PACAP38 peptide fragment 11-27; assay: SPR (Biacore 3000) solution competition: antibody pre-incubated 1:200 with the fragment, then injected over immobilised PACAP38
Experimental: (§1) In this experiment, various peptide fragments of PACAP38 were incubated with each of the six antibodies (mAb1, mAb2, mAb3, mAb4, mAb5, and mAb6) described in Example 2 and evaluated for their ability to inhibit binding of the antibodies to full-length PACAP38 immobilized on the sensor-chip. The binding epitopes for each of the antibodies were deduced from the set of peptides that were able to inhibit the binding of each antibody to full-length PACAP38.
(§2) Each of the six anti-PACAP antibodies was incubated at a 1:200 molar ratio (Ab: peptide fragment) with each of the peptide fragments in Table 9 at an ambient temperature for 2 hours prior to analysis. […] A second control containing 6.5 nM antibody was prepared in sample diluent to be used as the untreated control sample for each antibody. Full-length PACAP38, buffer, and each peptide fragment were also tested to evaluate non-specific binding to the immobilized PACAP38 surface.

[2] = biological target: T2, PACAP38 peptide fragment 4-27; assay: as above
Experimental: as §1, §2

[3] = biological target: T3, PACAP38 peptide fragment 14-38; assay: as above
Experimental: as §1, §2

[4] = biological target: T4, PACAP38 peptide fragment 6-35; assay: as above
Experimental: as §1, §2

human PACAP27 = biological target: T5, human PACAP27; assay: cell-based or functional assay
30-37 [5] = biological target: T6, 30-37; assay: SPR (Biacore 3000), solution competition with the peptide for antibody binding to immobilised full-length PACAP38; % inhibition
Experimental: (§3) The binding epitopes of anti-PACAP antibodies were evaluated by using the Biacore 3000 biosensor-based instrument (GE Healthcare USA). The Biacore 3000 instrument utilizes surface plasmon resonance (SPR) technology to measure mass increase on the sensor-chip surface. The binding interactions are measured in real-time and recorded as Response Units (RU). Each binding profile (cycle) is stored in a “sensorgram” in real-time. Generally, Biacore technology entails immobilizing a ligand of interest on to a flow-cell of the sensor-chip via a coupling chemistry. The analyte (e.g. putative binding partner to the ligand of interest) is injected across the immobilized ligand allowing it to bind to the ligand-immobilized surface. The magnitude of the response is directly proportional to the mass increase on the immobilized surface due to the binding of the analyte.
as §1, §2

[6] = biological target: T7, PACAP38 peptide fragment 34-38; assay: as above
Experimental: as §3, §1, §2

[7] = biological target: T8, PACAP38 peptide fragment 27-38; assay: SPR (Biacore 3000) solution competition against immobilised PACAP38
[8] = biological target: T9, PACAP38 peptide fragment 26-33; assay: as above
[9] = biological target: T1, PACAP38 peptide fragment 11-27; assay: SPR (Biacore 3000), solution competition: antibody pre-incubated 2 h with the peptide at 1:200 molar ratio (Ab:peptide), then injected over immobilised full-length PACAP38; readout % inhibition of antibody binding (filing counts >50 % as reactive)
Experimental: as §3, §1, §2

[10] = biological target: T2, PACAP38 peptide fragment 4-27; assay: as above
Experimental: as §3, §1, §2

[11] = biological target: T4, PACAP38 peptide fragment 6-35; assay: as above
Experimental: as §3, §1, §2

[12] = biological target: T10, amino terminal PACAP38 peptide (amino …); assay: ELISA screen of B-cell culture supernatant; N-terminal peptide at 500 ng/mL
[13] = biological target: T7, PACAP38 peptide fragment 34-38; assay: SPR (Biacore 3000) solution competition: antibody pre-incubated 1:200 with the fragment, then injected over immobilised PACAP38
Experimental: as §1, §2

[14] = biological target: T8, PACAP38 peptide fragment 27-38; assay: SPR (Biacore 3000), solution competition: antibody pre-incubated 2 h with the peptide at 1:200 molar ratio (Ab:peptide), then injected over immobilised full-length PACAP38; readout % inhibition of antibody binding (filing counts >50 % as reactive)
Experimental: as §3, §1, §2

30-37 [15] = biological target: T6, 30-37; assay: as above
Experimental: as §3, §1, §2

31-38 = biological target: T11, 31-38; assay: as above
Experimental: as §3, §1, §2

[16] = biological target: T12, full-length human PACAP38; assay: cell-based or functional assay

| binding result [1] | binding result [2] | binding result [3] | binding result [4] | IC50: inhibition of PACAP27 (10 pM)-induced activation of human PAC1 receptor, cAMP assay in SH-SY5Y (CRL-2266) cells, POC versus antibody concentration (human PACAP27) | binding result [9] | binding result [10] | binding result [11] | Optical Density [12] | binding result [13] | binding result [14] | binding result (30-37 [15]) | binding result (31-38) | IC50, inhibition of PACAP38-induced activation of the PAC1 receptor (cAMP assay, CRL-2266 cells) [16] | potency relative to PAC1 Ab, inhibition of PACAP38-induced PAC1 receptor activation (cAMP assay) [16] | Binder | binding result (30-37 [5]) | binding result [6] | binding result [7] | binding result [8] |
| --- | --- | --- | --- | --- | --- | --- | --- | --- | --- | --- | --- | --- | --- | --- | --- | --- | --- | --- | --- |
| binds | binds | binds | binds | 41 nM | – | – | – | – | – | – | – | – | – | – | mAb5 (antibody, V domains shown, Rabbit monoclonal antibody (SLAM), recombinant; also called monoclonal anti-PACAP antibody 5; 5 (c71)) VH: QSVEESGGRLVTPGTPLTLTCTVSGFSLSTYNMCWVRQAPGKGLEWVGFINSDDSAYYASWAKGRFTFSKTSTTVDLKIASPTTEDTATYFCARYDWDYYYSRLDLWGPGTLVTVSS VL: DIVLTQTPASVSAAVGGTVSISCQSSESVYNNNYLSWFQQKPGQPPKLLIYGASTLASGVPSRFEGSGSGTQFTLTISDVQCDDAATYYCLGDYIIIENIFGGGTEVVVKG | no binding (tested: 1:200 molar ratio (Ab:peptide)) | no binding (tested: 1:200 molar ratio (Ab:peptide)) | no binding (tested: 1:200 molar ratio (Ab: peptide fragment)) | no binding (tested: 1:200 molar ratio (Ab: peptide fragment)) |
| – | – | – | – | – | binds | binds | binds | – | – | – | – | – | – | – | mAb6 (antibody, V domains shown, Rabbit monoclonal antibody (SLAM), recombinant; also called monoclonal anti-PACAP antibody 6; 6 (c55)) VH: QLEESGGGLVQPGASLTLTCTTSGFSLSDNYLCWVRQAPGRGLEWVACIGIVLRSTGATYYASWAEGRFTISKTSPTTVTLEMTSLTAADTATYFCALDLGYGGPLWGPGTLVTVSS VL: AQVLTQTPASVSAAVGGTVTINCQASQSVYNNKNLAWYQQKPGQPPKLLIYFSSTLASGVPSRFRGSGSGTQFTLTISGVQCGDAATYYCLGEFGSIWAFGGGTEVVVKG | no binding (tested: 1:200 molar ratio (Ab:peptide)) | no binding (tested: 1:200 molar ratio (Ab:peptide)) | – | – |
| – | – | – | – | – | – | – | – | 0.06 OD | binds | binds | binds | binds | < 1 nM | ~10 fold | mAb2 (antibody, V domains shown, Rabbit monoclonal antibody (SLAM), recombinant; also called monoclonal anti-PACAP antibody 2; 2 (c81)) VH: QSLEESGGGLVQPEGSLTLTCTASGFSFNSSSYMCWVRQAPGKGLEWIGCIFTGSSGNTYYATWAQGRFTISKTSTTVTLEMTSLTAADTATYFCARDRAYFLVGYFYATYYFDLWGPGTLVTVSS VL: DVVMTQTPSPVSAQVGGTVTINCQASESIDSDLSWYQQKPGQPPKLLIYRTFTLESGVPSRFKGSGSGTDYTLTISDLECADAAIYYCQCTDGSSISGSYGWDAFGGGTEVVVKG | – | – | – | – |

— US20180362643A1 (Amgen, published 2018)
